From patent US20260217806A1 (H LUNDBECK A S, published 2026)

Biological target: brain derived alpha synuclein oligomers and fibrils (MSA and PD brain homogenates enriched for aggregated, … (UniProt P37840 1-140))
Test: ELISA on MSA and PD brain homogenates enriched for aggregated, insoluble alpha synuclein (data not shown)

EC50: 0.09 to 0.16 nM
B1: GM37 variant 2 (antibody, human IgG1, kappa, V domains shown)
VH: EVQLLESGGGLVQTGGSLRLSCAASGFTFSSYAMTWVRQAPGKGLEWVSAIRSQGDRTDYADSVKGRFTISRDNSQNTLYLQMNSLRAEDTAVYYCAKNWAPFDSWGQGTLVTVSS
VL: not shown
notes: VH 31 and VL 8 are firmly tied to the antibody; It is a human IgG1 kappa; also called GM37v2; GM37var2
